Measurements published in the supplement of paper PMC10567573.

B1: STK38L (parent)
chain: FCIDSENRIGNSGVEEIKGHPFFE
B2: INTS3 (parent)
chain: EEITEESLEESVGKPLYLIFRNLC

Variants of: B1
Experiment: protein stability index of a GFP-peptide fusion (GPS, HEK-293T) (PSI 1-6); higher = more stable
Settings: c terminus: a fixed tail appended
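Also: lentivirally expressed fusions sorted by FACS into six bins by GFP to DsRed ratio, PSI derived from sequencing read proportions per bin multiplied by bin number.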

Protein stability index, by site and new letter:
P21: N 3.13; K 2.84; F 1.7; T 2.91; I 2.46; E 3.52
I17: Y 2.18; L 2.61; C 2.84; H 2.16; M 2.79; W 1.67
G19: V 2.09; I 1.54; K 2.16; M 1.67; H 2.13
F23: D 4.86; P 4.07; M 1.07; I 2.47; R 1.72
E15: I 1.46; L 1.9; S 1.96; T 2.08; H 2; Y 1.92; F 1.73
C2: M 3.58; K 3.37; P 2.39; G 4.21; Y 2.61; E 4.7; S 3.61; T 3.25; R 3
H20: F 2.62; D 2.53; E 4.12; N 2.67; M 2.71; Y 2.47; C 1.54; K 3.41
F1: V 3.77; N 4.4; C 2.84; I 3.24; G 4.26; Q 4.91; Y 2.48
R8: H 2.72; F 2.45; E 3.56; I 2.79; T 3.15; M 2.67; D 3.9; Y 2.15; G 2.8; W 2.87; A 2.67
I3: Y 2.16; E 3.95; T 3.6; N 3.43; G 3.29; K 2.5; W 2.19
S5: V 1.9; T 2.25; D 2.61; I 2.44; M 2.12; K 1.9
F22: I 3.65; K 4.49; N 4.5; Q 3.1; D 5.23
D4: T 2.44; S 1.3; L 1.25
S12: I 2.35; N 2.55; E 2.52; Y 1.99; L 1.9; H 2.56; R 2.35; A 1.98; M 1.72
I9: R 2.71; H 2.9; N 2.2; W 1.58
N11: H 2.38; W 1.57; V 2; M 1.83; P 2.12; F 1.88
E24: Y 1.69; A 1.92; I 2.72; M 1.45; G 1.59; D 2.24
K18: W 2.47; M 1.65; E 3.07
N7: K 2.25; A 2.93; M 2.71; P 2.21; I 1.58; L 2.24; D 2.43; Q 1.51
G10: Q 3.48; L 1.96; C 2.32; N 3.64; F 1.57; R 2.98
G13: F 2.95; W 2.87; A 2.07; V 1.97; R 2.26; C 2.1
E6: Q 1.73; W 1.35; H 2.16; M 2.89; C 1.77; L 2.21; T 1.74; P 1.48; I 2.23
E16: W 1.44; L 1.79; A 3.21; P 2.42; H 2.22; Y 1.51; G 2.67
V14: N 2.8; Q 2.74; I 2.1; R 2.32; S 2.32; P 2.46; L 1.54; D 2.68

Variants of: B2
Experiment: as above
Settings: c terminus: a fixed tail appended

Protein stability index of substitutions, site by site:
E2: S 2.58; C 2.48; M 2.1; Q 2.52; V 2.35; K 2.02; L 2.11; G 2.56; I 1.91; D 2.86; N 2.9; Y 1.69; F 2.38; R 2.93; W 1.74; A 1.98; T 2.68; P 2.51; H 2.32
E9: S 2.3; C 2.25; L 2.93; T 2.54; W 2.09; R 2.41; V 2.14; H 2.35; A 2.97; M 2.28; G 2.72; Y 1.96; I 2.14; Q 2.44; K 2.5; N 2.3; D 2.77; F 2.05; P 2.18
I3: Y 2.1; V 3.16; L 3; E 3.82; N 3.25; C 2.65; K 3.04; M 3.29; T 2.9; S 2.84; P 3.2; G 3.13; R 2.94; H 3.67; F 2.79; A 3.14; D 3.3; W 2.18; Q 3.36
T4: H 2.99; E 2.41; N 2.83; F 2.01; I 1.98; C 2.46; G 2.66; A 2.52; D 3.38; L 2.28; K 2.46; Y 2.29; R 2.3; P 2.77; Q 2.71; W 1.68; M 2.23; V 2.3; S 2.4
E1: N 2.88; F 1.8; S 2.58; Q 3.06; L 2.46; H 2.67; I 2.22; D 2.68; A 3.14; Y 2.3; W 2.52; T 2.6; R 2.2; M 2.45; G 2.69; C 2.29; P 2.27; K 2.51; V 2.31
E10: H 2.25; C 1.96; G 2.82; F 1.92; D 3.09; A 2.64
E5: V 1.72; Y 2.03; W 1.85; M 1.89; A 2.4; Q 2.37; S 2.5; F 1.61; L 2.1; N 2.64; P 1.98; H 2.62; R 1.96; G 2.09; D 2.72; K 2.31; I 1.56; C 2.14; T 2.37
S7: V 3.02; W 2.46; F 2.33; K 2.55; Y 2.15; G 2.75; Q 2.83; R 2.98; H 3.13; T 3.13; D 2.87; M 2.47; I 2.47; N 2.98; C 2.56; L 2.33; E 2.77; A 2.88; P 3.02
L8: W 1.95; F 2.57; C 3.3; K 3.42; Q 3.32; H 3.26; D 3.35; Y 2.97; M 2.86; P 3.11; N 3.34; S 3.48; E 3.2; A 3.46; I 2.47; T 3.42; V 3.15; R 3.09; G 3.21
E6: P 2.49; G 2.38; T 2.02; I 2.06; Y 2.39; A 2.01; H 2.44; S 2.27; Q 2.56; L 1.69; M 2; N 2.29; W 1.96; K 1.8; D 2.7; V 1.76; R 1.99; F 2.23; C 1.83
